Measurements: article PMC8163212 (Chemical Science, 2020)

Biological target: the molecule itself
Assay: SEC

B1: UVR8 mutant W198/250/302F (6Wd + 4Wc), on the W400F background (receptor)
chain: MAEDMAADEVTAPPRKVLIISAGASHSVALLSGDIVCSWGRGEDGQLGHGDAEDRPSPTQLSALDGHQIVSVTCGADHTVAYSQSGMEVYSWGWGDFGRLGHGNSSDLFTPLPIKALHGIRIKQIACGDSHCLAVTMEGEVQSWGRNQNGQLGLGDTEDSLVPQKIQAFEGIRIKMVAAGAEHTAAVTEDGDLYGWGFGRYGNLGLGDRTDRLVPERVTSTGGEKMSMVACGWRHTISVSYSGALYTYGFSKYGQLGHGDLEDHLIPHKLEALSNSFISQISGGWRHTMALTSDGKLYGWGFNKFGQVGVGNNLDQCSPVQVRFPDDQKVVQVSCGWRHTLAVTERNNVFAWGRGTNGQLGIGESVDRNFPKIIEALSVDGASGQHIESSNIDPSSGKSFVSPAERYAVVPDETGLTDGSSKGNGGDISVPQTDVKRVRI
B1: binds.
